The results in this text go back to patent US20170165335A1 (IMMATICS BIOTECHNOLOGIES, published 2017).

Bounds are passed on as bounds.

To fix the notation:
B1: MLMPVHFLL (peptide)
peptide: MLMPVHFLL
notes: synthetic peptide
B2: FLGKVVIDV (peptide)
peptide: FLGKVVIDV
notes: synthetic peptide
B3: KMDASLGNLFA (peptide)
peptide: KMDASLGNLFA
notes: synthetic peptide

For this assay, the target named is peptide-receptive MHC class I molecule (HLA-A*02:01 with beta-2-microglobulin) of the UV-ligand exchange assay (human). As to the kind of experiment: UV-ligand exchange + anti-b2m ELISA; peptide exchange yield grade (++++ = >=75%). An excerpt:
Candidate peptides for T cell based therapies according to the present invention were further tested for their MHC binding capacity (affinity). The individual peptide-MHC complexes were produced by UV-ligand exchange, where a UV-sensitive peptide is cleaved upon UV-irradiation, and exchanged with the peptide of interest as analyzed. Only peptide candidates that can effectively bind and stabilize the peptide-receptive MHC molecules prevent dissociation of the MHC complexes. To determine the yield of the exchange reaction, an ELISA was performed based on the detection of the light chain (β2m) of stabilized MHC complexes. The assay was performed as generally described in Rodenko et al. (Rodenko et al., 2006).
96 well MAXISorp plates (NUNC) were coated over night with 2 ug/ml streptavidin in PBS at room temperature, washed 4× and blocked for 1 h at 37° C. in 2% BSA containing blocking buffer. Refolded HLA-A*02:01/MLA-001 monomers served as standards, covering the range of 15-500 ng/ml. Peptide-MHC monomers of the UV-exchange reaction were diluted 100 fold in blocking buffer. Samples were incubated for 1 h at 37° C., washed four times, incubated with 2 ug/ml HRP conjugated anti-β2m for 1 h at 37° C., washed again and detected with TMB solution that is stopped with […]. Absorption was measured at 450 nm. Candidate peptides that show a high exchange yield (preferably higher than 50%, most preferred higher than 75%) are generally preferred for a generation and production of antibodies or fragments thereof, and/or T cell receptors or fragments thereof, as they show sufficient avidity to the MHC molecules and prevent dissociation of the MHC complexes.
B1: the peptide exchange yield is not below 75%.

Regarding B2, the peptide exchange yield was not below 75%.

For B3, the peptide exchange yield is not below 75%.
